# In patent publication US20240115744A1, “FIBRIN-BINDING COMPOUNDS FOR IMAGING AND TREATMENT” (Collagen Medical, LLC, priority 2019, published 2024):
# *1 amine or outer side, *2 acyl side, *3 side chain or, on linkers, in order; H or OH if unused. Where a SMILES comes first, the peptide text is derived from it. Bridges are numbered along the chain shown (N, C = ends). [ ]: non-standard residue; d: D form. The star is where a group is joined. NODAGA = O=C(O)CN1CCN(CC(=O)O)CCN(C(CCC(=O)*)C(=O)O)CC1; Tyr(3-Cl) = N[C@@H](Cc1ccc(O)c(Cl)c1)C(=O)O; Nicotinoyl(6-F) = O=C(c1ccc(F)nc1)*; X1 = O=C([C@@H]1CC(O)CN1[*:1])[*:2]; Hyp = O=C(O)[C@@H]1C[C@@H](O)CN1
# B1: Compound 12 (peptide)
# peptide: {Nicotinoyl(6-F)}-Y[dE]C[Hyp][Tyr(3-Cl)]DLCYIQ-NH2
# modifications: disulfide 3-8
# SMILES: CC[C@H](C)[C@H](NC(=O)[C@H](Cc1ccc(O)cc1)NC(=O)[C@@H]1CSSC[C@H](NC(=O)[C@@H](CCC(=O)O)NC(=O)[C@H](Cc2ccc(O)cc2)NC(=O)c2ccc(F)nc2)C(=O)N2C[C@H](O)C[C@H]2C(=O)N[C@@H](Cc2ccc(O)c(Cl)c2)C(=O)N[C@@H](CC(=O)O)C(=O)N[C@@H](CC(C)C)C(=O)N1)C(=O)N[C@@H](CCC(N)=O)C(N)=O
# B2: Compound 13 (peptide)
# peptide: {Nicotinoyl(6-F)}-Y[dE]C[Hyp][Tyr(3-Cl)]GLCYI[dQ]-NH2
# modifications: disulfide 3-8
# SMILES: CC[C@H](C)[C@H](NC(=O)[C@H](Cc1ccc(O)cc1)NC(=O)[C@@H]1CSSC[C@H](NC(=O)[C@@H](CCC(=O)O)NC(=O)[C@H](Cc2ccc(O)cc2)NC(=O)c2ccc(F)nc2)C(=O)N2C[C@H](O)C[C@H]2C(=O)N[C@@H](Cc2ccc(O)c(Cl)c2)C(=O)NCC(=O)N[C@@H](CC(C)C)C(=O)N1)C(=O)N[C@H](CCC(N)=O)C(N)=O
# B3: Compound 14 (peptide)
# peptide: {Nicotinoyl(6-F)}-Y[dE]C[Hyp][Tyr(3-Cl)][dD]LCYIQ-NH2
# modifications: disulfide 3-8
# SMILES: CC[C@H](C)[C@H](NC(=O)[C@H](Cc1ccc(O)cc1)NC(=O)[C@@H]1CSSC[C@H](NC(=O)[C@@H](CCC(=O)O)NC(=O)[C@H](Cc2ccc(O)cc2)NC(=O)c2ccc(F)nc2)C(=O)N2C[C@H](O)C[C@H]2C(=O)N[C@@H](Cc2ccc(O)c(Cl)c2)C(=O)N[C@H](CC(=O)O)C(=O)N[C@@H](CC(C)C)C(=O)N1)C(=O)N[C@@H](CCC(N)=O)C(N)=O
# B4: Compound 7 (peptide)
# peptide: {Nicotinoyl(6-F)}-Y[dE]C[Hyp][Tyr(3-Cl)]GLCYIQ-NH2
# modifications: disulfide 3-8
# SMILES: CC[C@H](C)[C@H](NC(=O)[C@H](Cc1ccc(O)cc1)NC(=O)[C@@H]1CSSC[C@H](NC(=O)[C@@H](CCC(=O)O)NC(=O)[C@H](Cc2ccc(O)cc2)NC(=O)c2ccc(F)nc2)C(=O)N2C[C@H](O)C[C@H]2C(=O)N[C@@H](Cc2ccc(O)c(Cl)c2)C(=O)NCC(=O)N[C@@H](CC(C)C)C(=O)N1)C(=O)N[C@@H](CCC(N)=O)C(N)=O
# B5: Compound 6 (peptide)
# peptide: {Nicotinoyl(6-F)}-[dY][dE]C[Hyp][Tyr(3-Cl)]GLCYIQ-NH2
# modifications: disulfide 3-8
# SMILES: CC[C@H](C)[C@H](NC(=O)[C@H](Cc1ccc(O)cc1)NC(=O)[C@@H]1CSSC[C@H](NC(=O)[C@@H](CCC(=O)O)NC(=O)[C@@H](Cc2ccc(O)cc2)NC(=O)c2ccc(F)nc2)C(=O)N2C[C@H](O)C[C@H]2C(=O)N[C@@H](Cc2ccc(O)c(Cl)c2)C(=O)NCC(=O)N[C@@H](CC(C)C)C(=O)N1)C(=O)N[C@@H](CCC(N)=O)C(N)=O
# B6: Compound 4 (peptide)
# peptide: {Nicotinoyl(6-F)}-Y[dE]C[Hyp][Tyr(3-Cl)]GLCHIQ-NH2
# modifications: disulfide 3-8
# SMILES: CC[C@H](C)[C@H](NC(=O)[C@H](Cc1c[nH]cn1)NC(=O)[C@@H]1CSSC[C@H](NC(=O)[C@@H](CCC(=O)O)NC(=O)[C@H](Cc2ccc(O)cc2)NC(=O)c2ccc(F)nc2)C(=O)N2C[C@H](O)C[C@H]2C(=O)N[C@@H](Cc2ccc(O)c(Cl)c2)C(=O)NCC(=O)N[C@@H](CC(C)C)C(=O)N1)C(=O)N[C@@H](CCC(N)=O)C(N)=O
# B7: Compound 2 (peptide)
# peptide: {Nicotinoyl(6-F)}-[dY][dE]C[Hyp][Tyr(3-Cl)]GLCHIQ-NH2
# modifications: disulfide 3-8
# SMILES: CC[C@H](C)[C@H](NC(=O)[C@H](Cc1c[nH]cn1)NC(=O)[C@@H]1CSSC[C@H](NC(=O)[C@@H](CCC(=O)O)NC(=O)[C@@H](Cc2ccc(O)cc2)NC(=O)c2ccc(F)nc2)C(=O)N2C[C@H](O)C[C@H]2C(=O)N[C@@H](Cc2ccc(O)c(Cl)c2)C(=O)NCC(=O)N[C@@H](CC(C)C)C(=O)N1)C(=O)N[C@@H](CCC(N)=O)C(N)=O
# B8: Compound 5 (peptide)
# peptide: {Nicotinoyl(6-F)}-Y[dE]C[Hyp][Tyr(3-Cl)]GLCHI[dQ]-NH2
# modifications: disulfide 3-8
# SMILES: CC[C@H](C)[C@H](NC(=O)[C@H](Cc1c[nH]cn1)NC(=O)[C@@H]1CSSC[C@H](NC(=O)[C@@H](CCC(=O)O)NC(=O)[C@H](Cc2ccc(O)cc2)NC(=O)c2ccc(F)nc2)C(=O)N2C[C@H](O)C[C@H]2C(=O)N[C@@H](Cc2ccc(O)c(Cl)c2)C(=O)NCC(=O)N[C@@H](CC(C)C)C(=O)N1)C(=O)N[C@H](CCC(N)=O)C(N)=O
# B9: Compound 3 (peptide)
# peptide: {Nicotinoyl(6-F)}-[dY][dE]C[Hyp][Tyr(3-Cl)]GLCHI[dL]-NH2
# modifications: disulfide 3-8
# SMILES: CC[C@H](C)[C@H](NC(=O)[C@H](Cc1c[nH]cn1)NC(=O)[C@@H]1CSSC[C@H](NC(=O)[C@@H](CCC(=O)O)NC(=O)[C@@H](Cc2ccc(O)cc2)NC(=O)c2ccc(F)nc2)C(=O)N2C[C@H](O)C[C@H]2C(=O)N[C@@H](Cc2ccc(O)c(Cl)c2)C(=O)NCC(=O)N[C@@H](CC(C)C)C(=O)N1)C(=O)N[C@H](CC(C)C)C(N)=O
# B10: Compound 8 (peptide)
# peptide: {Nicotinoyl(6-F)}-Y[dE]C[Hyp][Tyr(3-Cl)]GLCHI[dL]-NH2
# modifications: disulfide 3-8
# SMILES: CC[C@H](C)[C@H](NC(=O)[C@H](Cc1c[nH]cn1)NC(=O)[C@@H]1CSSC[C@H](NC(=O)[C@@H](CCC(=O)O)NC(=O)[C@H](Cc2ccc(O)cc2)NC(=O)c2ccc(F)nc2)C(=O)N2C[C@H](O)C[C@H]2C(=O)N[C@@H](Cc2ccc(O)c(Cl)c2)C(=O)NCC(=O)N[C@@H](CC(C)C)C(=O)N1)C(=O)N[C@H](CC(C)C)C(N)=O
# B11: Compound 9 (peptide)
# peptide: {Nicotinoyl(6-F)}-[dY][dE]C[Hyp][Tyr(3-Cl)]GLCYI[dL]-NH2
# modifications: disulfide 3-8
# SMILES: CC[C@H](C)[C@H](NC(=O)[C@H](Cc1ccc(O)cc1)NC(=O)[C@@H]1CSSC[C@H](NC(=O)[C@@H](CCC(=O)O)NC(=O)[C@@H](Cc2ccc(O)cc2)NC(=O)c2ccc(F)nc2)C(=O)N2C[C@H](O)C[C@H]2C(=O)N[C@@H](Cc2ccc(O)c(Cl)c2)C(=O)NCC(=O)N[C@@H](CC(C)C)C(=O)N1)C(=O)N[C@H](CC(C)C)C(N)=O
# How the values were obtained:
# [1] = Blood analysis in rat model of carotid artery crush injury (blood clearance); type: in vivo; settings: relative to the other compounds compared
# Description: Rat carotid endothelial injury model in vivo studies were conducted, wherein the common carotid artery is isolated and crushed briefly with a hemostat, resulting in mural thrombus formation at the site of the crush. The vessel wall fibrin is then imaged with our PET compounds. All six compounds were evaluated in this model.
# Adult male Wistar rats were anesthetized by isoflurane (1-2% in medical air). Body temperature was maintained at 37° C. using a thermo-regulated heating pad. The right femoral vein and artery were cannulated for compound injection and blood sampling, respectively. Endothelial injury was induced by crush injury to the right common carotid artery (1-2 cm proximal to the carotid bifurcation) by clamping the vessel with a hemostat for 5 minutes. Immediately following the surgical procedures, rats were placed in a micro-PET/CT scanner. Compound (200-600 μL) was injected, PET-CT images were acquired, and blood samples were drawn from the femoral artery prior to compound injection and at 2, 5, 10, 15, 30, 60, 90, 120 min post injection. Tissues were harvested at the end for ex vivo analyses.
# Blood samples were drawn from prior to probe injection and at 2, 5, 10, 15, 30, 60, 90, 120 min post injection. Each blood sample was weighed and counted using a gamma-counter. The activity in each sample was calculated as percent injected dose (% ID) per gram of tissue.
# [2] = molecular target: soluble fibrin fragment DD(E); assay: fluorescence polarization, displacement of the TRITC peptide from DD(E)
# [3] = molecular target: soluble fibrin fragment DD(E); assay: fluorescence polarization DD(E) assay
Molecule,"blood clearance ([1]; rat carotid artery crush injury, 2-120 min post injection)",metabolic stability ([1]; rat),Ki [2] [nM],Kd [3] [nM]
"CC[C@H](C)[C@H](NC(=O)[C@H](Cc1cnc[nH]1)NC(=O)[C@@H]1CSSC[C@H](NC(=O)[C@@H](CCC(=O)O)NC(=O)[C@@H](Cc2ccc(O)cc2)NC(=O)CCC(C(=O)O)N2CCN(CC(=O)O)CCN(CC(=O)O)CC2)C(=O)N2CC(O)C[C@H]2C(=O)N[C@@H](Cc2ccc(O)c(Cl)c2)C(=O)NCC(=O)N[C@@H](CC(C)C)C(=O)N1)C(=O)N[C@@H](CCC(N)=O)C(N)=O (stereo partly shown) [Compound ^68Ga-19, metal not drawn] ({NODAGA}-[dY][dE]C[X1][Tyr(3-Cl)]GLCHIQ-NH2; disulfide 3-8)",faster blood clearance,better metabolic stability,–,–
B1,–,–,1200,–
B2,–,–,1250,–
B3,–,–,2760,–
B4,–,–,580,< 600
B5,–,–,340,< 600
B6,–,–,180,< 600
B7,–,–,70,< 600
B8,–,–,230,< 600
B9,–,–,140,< 600
B10,–,–,640,–
B11,–,–,730,–
